17 molecules from patent US20030175288A1 (GREEN PEPTIDE, published 2003) can be followed below.

First the molecules themselves.
B1: P5 (peptide)
peptide: ILPRKHHRI
notes: synthetic peptide; also called gene 1 (UBE2V) 208-216
B2: P16 (peptide)
peptide: QILKGLLFL
notes: synthetic peptide; also called gene 5 (ppMAPkkk) 290-298
B3: P17 (peptide)
peptide: GLLFLHTRT
notes: synthetic peptide; also called gene 5 (ppMAPkkk) 294-302
B4: P7 (peptide)
peptide: CLYGNVEKV
notes: synthetic peptide; also called gene 2 (HNRPL) 404-412
B5: P12 (peptide)
peptide: MLPLECQYL
notes: synthetic peptide; also called gene 3 (WHSC2) 157-165
B6: P15 (peptide)
peptide: IIYDRKFLM
notes: synthetic peptide; also called gene 4 (EIF4EBP1) 52-60
B7: P13 (peptide)
peptide: TLLRKERGV
notes: synthetic peptide; also called gene 3 (WHSC2) 267-275
B8: P2 (peptide)
peptide: LLLLARWEDT
notes: synthetic peptide; also called gene 1 (UBE2V) 64-73
B9: P11 (peptide)
peptide: ILGELREKV
notes: synthetic peptide; also called gene 3 (WHSC2) 141-149
B10: P9 (peptide)
peptide: NVLHFFNAPL
notes: synthetic peptide; also called gene 2 (HNRPL) 501-510
B11: P1 (peptide)
peptide: RLQEWCSVI
notes: synthetic peptide; positions counted on the gene 1 product; also called UBE2V 43-51; gene 1 43-51
B12: P3 (peptide)
peptide: LIADFLSGL
notes: synthetic peptide; also called gene 1 (UBE2V) 85-93
B13: P14 (peptide)
peptide: RIIYDRKFL
notes: synthetic peptide; also called EIF4EBP1 51-59; gene 4 51-59

The target of this test is T1, HLA-A0201 molecule on T2 cells (human).
T1 construct: MHC class I molecule without peptide on T2 cells; detected with anti-HLA-A2 mAb BB7.2; also called HLA-A2 molecule
The test can be described thus: T2 cells with 10 µM peptide, HLA-A2 stained with mAb BB7.2, flow cytometry (relative MFI). The procedure:
Binding activity of the peptide to the HLA-A0201 molecule was tested using a T2 cell mutant strain (Cancer Res., 54:1071-1076, 1994.) The T2 cell expresses the HLA-A2 molecule on a cell surface without binding to a peptide, because of deficiency of TAP. Specifically, the synthesized peptide (10 μM) and the T2 cells were incubated at 26° C. for 3 h and, subsequently, incubated in 5% CO₂ and 95% air at 37° C. for 3 h. Thus, T2 cells, on whose surface the peptide was presented by HLA-A2, were obtained.
A general note: A flow cytometer gives signals particle by particle.
In turn, B1 gave an MFI of 637. The molecule B2 yielded an MFI of 887. Molecule B3 yielded an MFI of 660. For the molecule QQLCVYWTV (synthetic peptide) [P19], the MFI worked out at 775. For B4, the MFI was found to be 783. Molecule B5 came in with an MFI of 780. B6 had an MFI of 789.

With DLLSHAFFA (synthetic peptide) [P18], the MFI turned out to be 657. Regarding B7, the MFI turned out to be 656.

In turn, B8 yielded an MFI of 607. LLQDWHVIL (synthetic peptide) [P4] registered an MFI of 1010. Consider B9, for which the MFI was found to be 1090. B10 gave an MFI of 832.

B11 returned an MFI of 571. In turn, B12 yielded an MFI of 910.

Turning to B13, the MFI came to 591. In turn, ALVEFEDVL (synthetic peptide) [P6] displayed an MFI of 819.
